Assay results: article PMC10687086, “Illuminating the mechanism and allosteric behavior of NanoLuc luciferase” (Nature Communications, 2023)

B1: NanoLuc luciferase (NLuc) (Oplophorus gracilirostris; A31E/A60N/A81I/F95D/I117V/K70R/L54V/L99Q/M102K/N193R/P142E/Q151K/Q38R/Q45L/V71I/Y121A/Y165I) (protein)
chain: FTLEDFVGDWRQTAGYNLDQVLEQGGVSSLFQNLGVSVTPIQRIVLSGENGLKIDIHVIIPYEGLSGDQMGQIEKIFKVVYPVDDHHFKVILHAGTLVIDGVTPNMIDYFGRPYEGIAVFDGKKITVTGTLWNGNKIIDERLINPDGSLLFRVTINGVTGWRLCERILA
notes: engineered 19 kDa catalytic subunit of OLuc (16 residues mutated); monomer in solution, homotetramer in crystals
B2: NanoLuc luciferase (NLuc) (Oplophorus gracilirostris; A31E/A60N/A81I/D36R/F95D/I117V/K116R/K70R/L54V/L99Q/M102K/N193R/P142E/Q151K/Q38R/Q45L/V71I/Y165I) (protein)
chain: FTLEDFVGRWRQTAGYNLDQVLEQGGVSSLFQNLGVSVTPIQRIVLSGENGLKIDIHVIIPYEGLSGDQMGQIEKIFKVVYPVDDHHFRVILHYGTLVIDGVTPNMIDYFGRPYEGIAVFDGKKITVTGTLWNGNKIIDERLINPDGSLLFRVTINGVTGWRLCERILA
notes: as for B1
B3: NanoLuc luciferase (NLuc) (Oplophorus gracilirostris; A31E/A60N/A81I/D36R/F95D/H84A/I117V/K116R/K70R/L54V/L99Q/M102K/N193R/P142E/Q151K/Q38R/Q45L/V71I/Y165I) (protein)
chain: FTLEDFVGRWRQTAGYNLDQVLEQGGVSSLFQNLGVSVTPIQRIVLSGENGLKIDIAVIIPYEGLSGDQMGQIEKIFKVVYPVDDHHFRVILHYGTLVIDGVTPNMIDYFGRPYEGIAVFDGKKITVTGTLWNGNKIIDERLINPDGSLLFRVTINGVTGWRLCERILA
notes: as for B1

Columns and labels:
Assay in all cases: luminescence, global fit of progress curves
Type in all cases: biochemical, Oplophorus gracilirostris
Settings in all cases: 100 mM potassium phosphate pH 7.50, 37 °C, co-substrate O2, pH 7.5
[1] = substrate: O=c1c(Cc2ccco2)nc2c(Cc3ccccc3)[nH]c(-c3ccccc3)cn1-2
Source text: (§1) luminescence, global fit of progress curves on NanoLuc luciferase (NLuc)

[2] = substrate: Oc1ccc(Cc2nc3c(Cc4ccccc4)nc(-c4ccc(O)cc4)cn3c2O)cc1
Source text: as §1

[3] = substrate: O=c1c(Cc2ccco2)nc2c(Cc3ccccc3)[nH]c(-c3ccccc3)cn1-2; remark: listed apart in the source
[4] = substrate: Oc1ccc(Cc2nc3c(Cc4ccccc4)nc(-c4ccc(O)cc4)cn3c2O)cc1; remark: listed apart in the source

Protein	Km [1] [µM]	kcat [1] [s⁻¹]	kcat/Km [1] [M⁻¹ s⁻¹]	Km [2] [µM]	kcat [2] [s⁻¹]	kcat/Km [2] [M⁻¹ s⁻¹]	Km [3] [µM]	kcat [3] [s⁻¹]	kcat/Km [3] [M⁻¹ s⁻¹]	Km [4] [µM]	kcat [4] [s⁻¹]	kcat/Km [4] [M⁻¹ s⁻¹]
B1	1.29 ± 0.02	0.519 ± 0.007	402000 ± 6000	3.74 ± 0.09	0.225 ± 0.004	60000 ± 1000	–	–	–	–	–	–
B2	–	–	–	–	–	–	0.157 ± 0.009	5.2 ± 0.1	3.3e+07 ± 2e+06	0.46 ± 0.01	16.8 ± 0.6	3.7e+07 ± 1e+06
B3	–	–	–	0.77 ± 0.07	40 ± 4	7e+07 ± 7e+06	–	–	–	–	–	–
